How the values were obtained:
[1] = molecular target: RSV F protein of subtype B (18537) on recombinant mKate-RSV virus (Respiratory syncytial virus subtype B …, UniProt P13843 26-574); assay: cell-based or functional assay
[2] = molecular target: RSV F protein of subtype A (strain A2) on recombinant mKate-RSV virus (Respiratory syncytial virus subtype A …, UniProt P03420 26-574); assay: cell-based or functional assay
[3] = molecular target: T1, RSV F subtype A, furin-cleaved ectodomain stabilized in the prefusion conformation (DS-Cav1) (Respiratory syncytial virus subtype A, UniProt P03420 26-524); assay: BLI, IgG on AHQ sensor, 100 nM antigen
T1 construct: extracellular domain; Trimeric soluble antigen; also called Prefusion subtype A

[4] = molecular target: T2, RSV F subtype B, furin-cleaved ectodomain stabilized in the prefusion conformation (DS-Cav1) (Respiratory syncytial virus subtype B); assay: BLI, IgG on AHQ sensor, 100 nM antigen
T2 construct: extracellular domain; Trimeric soluble antigen; also called Prefusion subtype B

[5] = molecular target: RSV F protein of subtype A (strain A2) on recombinant mKate-RSV (respiratory syncytial virus subtype A …, UniProt P03420 26-574); assay: cell-based or functional assay
[6] = molecular target: RSV F protein of subtype B (18537) on recombinant mKate-RSV (respiratory syncytial virus subtype B …, UniProt P13843 26-574); assay: cell-based or functional assay

Binder | Neut IC50 (µg/ml) subtype B [1] [µg/mL] | Neut IC50 (µg/ml) subtype A [2] [µg/mL] | Kd [3] [nM] | Kd [4] [nM] | Neut IC50 subtype A [5] [µg/mL] | Neut IC50 subtype B [6] [µg/mL]
ADI-18919 (antibody, V domains shown, full-length IgG from yeast) VH: QVQLQESGPGLEKPSQTLSLTCTVSRGSIRIGGYFWSWIRQHPGKGLEWLGYISNDGATDYNPSLRSRLAISADTSKNQFSLTLRSVTAADTAIYYCARTSYAGRMLDRWGQGILVTVSS VL: DIRVTQSPVSLPVTPGEPASISCRSSQSLLHSNGNNYLDWYLQKPGQSPQLLIYMGSYRASGVPDRFSGSGSGTDFTLKISRVEAEDVGVYYCMQGLQIPWTFGQGTKLEIK | 0.261 | 0.123 | 0.202 | 0.163 | – | –
ADI-18920 (antibody, V domains shown, full-length IgG from yeast; also called Antibody Number 274; Ab # 274) VH: EVQLLESGGGVVQPGRSLRLSCAASGFTFSSYAMHWVRQTPDKGLEWVALISDDGRNEYYADSVQGRFTISRDKSKNTLHLEMNSLRAEDTAVYYCAKVRNEAWELLGNDDALDVWGQGTMVTVSS VL: QSVLTQPPSVSAAPGQKVTISCSGTSFNIGSNYVSWYQLLPGTAPKLLIFDNYKRPSGIPDRFSGSWSGTSATLAISGLQTGDEAEYFCGTWDTSLRAGVFGGGTKLTVL | 0.049 | 0.041 | 0.678 | 0.0977 | – | –
ADI-18985 (antibody, V domains shown) VH: QVQLVQSGPEVKKPGASVKVSCEASGYTFTDFFVHWVRQAPGEGLVWLGWVNPLSGATKYAQNFQGRVTMTSDTSITTAYMALSSLRHDDTAVYYCTSQTSPYTPGAMGVWGQGTTVTVSS VL: DIRVTQSPASLSAFVGDRVTITCRASPAISGYLSWYQQKAGKAPKILIYDASNLYSGAPSRFSGSRSGTDFTLTITSLQPEDFATYYCQQTYNGLIAFGPGTKVEIK | – | – | – | – | 0.034 | 0.09
ADI-18979 (antibody, V domains shown) VH: EVQLLESGAEVKKPGASVKISCKASGYIFTSYGVSWVRQAPGQGLKWMGWISGYNGNTYYDQKFQGRVTMTTDTSTNTAYMELRSLTSDDTAVYYCARDSFSETGTGFPDFWGQGTLVTVSS VL: EIVLTQSPLSLPVTLGQPASISCRSSQSLEYSDGNTYLNWFQQRPGQSPRRLIYKVSNRDSGVPDRFSGSGSGTDFTLKISRVEAEDVGVYYCMQATHRPRTFGQGTKVDIK | – | – | – | – | 0.012 | 0.031
ADI-18915 (antibody, V domains shown, full-length IgG from yeast; also called Antibody Number 269; Ab # 269) VH: QVQLVQSGGGLVKPGGSLRLSCAASGFTFSKAWMNWVRQAPGKGLEWVGRIRSKTDGGTADYAAPVKGRFTMSRDDSKNTLYLQMNSLKTEDTAVYYCATDSRRLYDSRGFYSSAFDVWGQGTTVTVSS VL: QSVLTQPPSVSGAPGQRVTISCTGSSSNIGAGYDVHWYQHLPGTAPKVLIYGNNNRPSGVPDRFSGSKSGTSASLAITGLQAEDEADYYCQSYDDSLTGWVFGGGTKVTVL | 0.021 | 1.2 | 28.1 | 0.421 | – | –
ADI-18988 (antibody, V domains shown) VH: EVQLVESGGGLVRPGGSLRLSCAASGFSLSSYGMSWVRQAPGKGLEWVSSITAGSSYINYADSVKGRFTISRDNAKSSLFLQMTSLRVEDTAVYFCVREAYASSSALYWFDPWGQGTLVTVSS VL: QSVLTQPPSVSGAPGQRVTISCTGSSSNLGAGYVVHWYQQLPGTSPKLLIYGNTDRPSGVPDRFSGSKSGTSASLAISGLQAEDEADYYCQSYDSSLSGWVFGGGTKLTVL | – | – | – | – | 0.089 | 0.37
ADI-18916 (antibody, V domains shown, full-length IgG from yeast; also called Antibody Number 270; Ab # 270) VH: QVQLVQSGPEVKKPGESLTISCKGSGYDFSNNWIGWVRQMPGKGLEWMGIIYPGDSDTRYSPSFQGQVTLSVDKSISTAYLQWRSLKASDSGIYYCARQIGGLVCSSESCYFYGMDVWGQGTTVTVSS VL: DIRVTQSPSSLSASVGGRVTITCRASQSISNYLNWYQHKPGKAPELLIYGASSLQSGVPSRFSGSGSGTDFTLTISSLQPEDFATYYCQQSDTTPFTFGQGTKLEIK | < 0.01 | < 0.01 | 0.585 | 0.465 | – | –
ADI-18983 (antibody, V domains shown) VH: EVQLVESGGGVVQPGRSLRLSCAASGFTFSSFSMHWVRQAPGKGLEWVALISSDERNSYYADSVKGRFTISRDNSKNTLYLQISRLKVEDTAVYYCAREAYEEWELTMGNLDHWGQGTLVTVSS VL: DIQLTQSPSSLSASVGDRVTITCRASQGIGNDLGWYQQKPGKAPKRLIYSTYSLQSGVPSRFSGSGSGTEFTLTISSLQPEDFATYYCLQHNRYPFTFGPGTKLEIK | – | – | – | – | 0.028 | 0.075
ADI-18994 (antibody, V domains shown) VH: QVQLVQSGAEVKKPGASVKVSCKASGYTFTNYGFSWVRQAPGQGLEWMGWILTHNGYTNYAQKFQDRVTMKTDTSTSTVYMELRSLRSVDTAVYYCARIGHVTAVAGAPPDYWGQGTLVTVSS VL: QPVLTQPASVSGYQGQSITISCSGTSSDVGTYNLVSWYQQHPGKAPELMIYEGSKRPSGVSDRFSGSKSGNTASLTISGLQAEDEADYYCCSYVAGSTSVFGGGTKLTVL | – | – | – | – | 0.047 | 0.108
ADI-18987 (antibody, V domains shown) VH: QVQLVQSGAEVKKPGSSVKVSCKASGGTFSGHAINWVRQAPGQGLEWMGGIIHIFGTVNYAPKFQGRVTITADASTGTVYMELSSLISEDTAVYYCARDAYEVWTGSYLPPFDDWGQGTLVTVSS VL: DIVMTQSPGTLSLSPGDRVTLSCRASQTVTSSYLAWYQQKPGQAPRLLIYGAFTRATGIPDRFSGSGSGTDFTLSISRLEPEDFAVYYCQQYGSSFLTFGGGTKVDIK | – | – | – | – | 0.015 | 0.027
ADI-18991 (antibody, V domains shown) VH: EVQLVESGPGLVKPSETLSLSCIVSGDSITSNDYYWSWIRQSPGKGLEWIGYIYHSGATFYTPSLRSRVTISTDRSKNQFSLRLSSVTAADTAVYYCASGPVGMATSNWFDPWGQGTLVTVSS VL: QPVLTQPPSVSVAPGKTATLTCGGDIIRTNSVNWYQQKPGQAPVLIIYYDSDRPSGIPGRFSASNSGSAATLTISRVEAGDEADYYCQVWDSSTDYHVVFGGGTKLTVL | – | – | – | – | 0.028 | 0.228
ADI-18926 (antibody, V domains shown, full-length IgG from yeast; also called Antibody Number 280; Ab # 280) VH: EVQLVESGAEVKKPGASVKVSCQTSGYTFSHFGVTWIRQAPGQGLEWLGWISAYNGNTDYADKLQGRLTMTTDTSTNTAYMELRSLRSDDTAVYYCARDPPASAAAMLDYWGQGTLVTVSS VL: DIVMTQSPLSLAVTLGQPASISCKSSQGLEYTDGNTYLSWFQQRPGQSPRRLIYKISNRDSGVPDRFSGSGSGTDFTLRISRVEAEDVGVYYCMQGTHGRGISFGPGTKVDIK | 0.092 | 0.023 | 0.252 | 0.25 | – | –
ADI-18986 (antibody, V domains shown) VH: EVQLLESGGGVVQPGKSLRLSCAASGFTFNTYAIHWVRQAPGKGLEWVAAISYDGSNEYYSNSVKGRFTISRDNSKYTLELQMNSLRPEDTAVYYCARGASYYYVSSDLGYWGQGTLVTVSS VL: QSVVTQPPSVSGAPGQRVTISCTGSSSNIGSGYDVHWYQQLPGTAPKVVIYGNINRPSGVPERFSGSKSGTSASLAITGLQAEDEADYYCQSYDSLSASWVFGGGTKLTVL | – | – | – | – | 0.464 | 0.123
ADI-18978 (antibody, V domains shown) VH: EVQLVESGGGVVQPGRSLRLSCEASGFTFSSFSMHWVRQAPGKGLEWVAVILYDGSNQYYADSVKGRFTISRDNSKNTLYLQMNTLRAEDTAMYYCAKSSSSHVNSRQDKWGQGTLVTVSS VL: EIVLTQSPSTLSASVGDRVTITCRASQSISRWLAWYQQKPGEAPKLLIHTASTLESGVPSRFSGSGSGTEFTLTINSLQPDDLATYYCQQYYNWWTFGQGTKVEIK | – | – | – | – | > 10 | > 10
ADI-18993 (antibody, V domains shown) VH: EVQLVESGGGLVKPGGSLRLSCAASGFTLSSYAMNWVRQAPGKGLEWVSSISAGSSYIDYADSVKGRFTISRDNAKNSLYLQMNNLRAEDTALYYCAREVLPATAIGGAWLDPWGQGTLVTVSS VL: QSVLTQPPSVSGAPGQTVTISCTGSSSNIGAGYDVHWYRQLPGTAPKLLIYSNNNRPSGVPDRFSGSKSDTSASLAITGLQAGDEADYYCQSYDISLSASYVFGTGTKVTVL | – | – | – | – | 0.078 | 0.128
ADI-18923 (antibody, V domains shown, full-length IgG from yeast) VH: EVQLLESGGGLVKPGGSLRLSCAASGFTFSSYSMNWVRQAPGKGLEWVSSISSSSSYIYYADSVKGRFTISRDNAKNSLYLQMNSLRAEDTAVYYCARDWPNSSSSPNWFDPWGQGTLVTVSS VL: QSVLTQPPSVSGAPGQRVTISCTGSSSNIGAGYDVHWYQQLPGTAPKLLIYGNSNRPSGVPDRFSGSKSGTSASLAITGLQAEDEADYYCQSYDSSLSGFYVFGTGTKLTVL | 0.147 | 0.078 | 0.517 | 1.79 | – | –

— patent US20200223906A1 (Adimab, published 2020)
